Measurements published in the array DNA melting data of Ke et al..

Assay: melting temperature; melt of duplexes
Details: sodium 0.0675 M; strand 1 µM

Substance	Tm
CGACGTGCTGCATGTGCTG+CAGCACATCGAGCACGTCG (((((((((..((((((((+))))))))..)))))))))	52.5 °C
CGACGTGCTGCATGTGCTG+CAGCACATCGCGCACGTCG ((((((((...((((((((+))))))))...))))))))	52.6 °C
CGACGTGCTGCATGTGCTG+CAGCACATCTTGCACGTCG ((((((((...((((((((+))))))))...))))))))	50.1 °C
CGACGTGCTGCATGTGCTG+CAGCACATGACGCACGTCG ((((((((..(((((((((+)))))))))..))))))))	52.9 °C
CGACGTGCTGCATGTGCTG+CAGCACATGCAGCACGTCG (((((((((((((((((((+)))))))))))))))))))	67.5 °C
CGACGTGCTGCATGTGCTG+CAGCACATGCTGCACGTCG ((((((((.((((((((((+)))))))))).))))))))	61.2 °C
CGACGTGCTGCATGTGCTG+CAGCACATGGCGCACGTCG ((((((((..(((((((((+)))))))))..))))))))	55.3 °C
CGACGTGCTGCATGTGCTG+CAGCACATGGGGCACGTCG ((((((((..(((((((((+)))))))))..))))))))	57 °C
CGACGTGCTGCATGTGCTG+CAGCACATGGTGCACGTCG ((((((((..(((((((((+)))))))))..))))))))	54.2 °C
CGACGTGCTGCATGTGCTG+CAGCACATGTAGCACGTCG (((((((((.(((((((((+))))))))).)))))))))	60.4 °C
CGACGTGCTGCATGTGCTG+CAGCACATGTTGCACGTCG ((((((((..(((((((((+)))))))))..))))))))	56.4 °C
CGACGTGCTGCATGTGCTG+CAGCACATTAGGCACGTCG ((((((((...((((((((+))))))))...))))))))	50.4 °C
CGACGTGCTGCATGTGCTG+CAGCACATTGTGCACGTCG ((((((((...((((((((+))))))))...))))))))	45.5 °C
CGACGTGCTGCATGTGCTG+CAGCACATTTGGCACGTCG ((((((((...((((((((+))))))))...))))))))	49.1 °C
CGACGTGCTGGATGTGCTG+CAGCACATAAAGCACGTCG (((((((((..((((((((+))))))))..)))))))))	55.3 °C
CGACGTGCTGGATGTGCTG+CAGCACATACAGCACGTCG ((((((((((.((((((((+)))))))).))))))))))	61.4 °C
CGACGTGCTGGATGTGCTG+CAGCACATATAGCACGTCG (((((((((..((((((((+))))))))..)))))))))	54.6 °C
CGACGTGCTGGATGTGCTG+CAGCACATATGGCACGTCG ((((((((...((((((((+))))))))...))))))))	52.7 °C
CGACGTGCTGGATGTGCTG+CAGCACATATTGCACGTCG ((((((((...((((((((+))))))))...))))))))	50.9 °C
CGACGTGCTGGATGTGCTG+CAGCACATCAAGCACGTCG (((((((((.(((((((((+))))))))).)))))))))	59 °C
CGACGTGCTGGATGTGCTG+CAGCACATCAGGCACGTCG ((((((((..(((((((((+)))))))))..))))))))	56.7 °C
CGACGTGCTGGATGTGCTG+CAGCACATCCAGCACGTCG (((((((((((((((((((+)))))))))))))))))))	65.5 °C
CGACGTGCTGGATGTGCTG+CAGCACATCTAGCACGTCG (((((((((.(((((((((+))))))))).)))))))))	60 °C
CGACGTGCTGGATGTGCTG+CAGCACATCTCGCACGTCG ((((((((..(((((((((+)))))))))..))))))))	55.3 °C
CGACGTGCTGGATGTGCTG+CAGCACATCTGGCACGTCG ((((((((..(((((((((+)))))))))..))))))))	58.3 °C
CGACGTGCTGGATGTGCTG+CAGCACATCTTGCACGTCG ((((((((..(((((((((+)))))))))..))))))))	56.6 °C
CGACGTGCTGGATGTGCTG+CAGCACATGCAGCACGTCG ((((((((((.((((((((+)))))))).))))))))))	61.3 °C
CGACGTGCTGGATGTGCTG+CAGCACATGCCGCACGTCG ((((((((.(.((((((((+)))))))).).))))))))	53.6 °C
